This passage reports Kd results from article PMC3463842.

In this assay the target is ubiquitin^TAMRA (C-terminal TAMRA-labelled ubiquitin) (UniProt P0CG48). The assay is described as follows: fluorescence polarisation.

Broadly, the Kd is a measure of binding affinity in units of concentration. The substance HOIP^LDD (domain or fragment) showed a Kd of 97 µM. This lies in the double-digit micromolar range.

HOIP^LDD C930A (domain or fragment) showed a Kd of 734 µM.
